This test concerns the target catalytic domain of MMP-14 (MMP-14CAT) (human). Briefly: enzyme inhibition assay.

Broadly, the Ki is the equilibrium dissociation constant of an inhibitor or competing ligand from its target. A high value points to lower affinity.

B1: N-TIMP2-S31PrK, P16035 27-153 (domain or fragment)
chain: CSCSPVHPQQAFCNADVVIRAKAVSEKEVDKGNDIYGNPIKRIQYEIKQIKMFKGPEKDIEFIYTAPSSAVCGVSLDVGGKKEYLIAGKAEGDGKMHITLCDFIVPWDTLSTTQKKSLNHRYQMGCE
modifications: here or on the partner: propargyl lysine (PrK) at position 31
The molecule B1 returned a Ki of 1.57 nM.
